{"source": "paper PMC6613369", "substrate": "CO[C@@H]1O[C@H](CO)[C@H](O)[C@@H](O)[C@H]1O", "test": "purified protein", "assay_type": "biochemical, Escherichia coli", "settings": "oxidation, 2.0 mM NAD+, 50 mM HEPES/K+, pH 8.0, 30 °C"}
{"protein": "YcjQ (Escherichia coli K-12) (protein) MKKLVATAPRVAALVEYEDRAILANEVKIRVRFGAPKHGTEVVDFRAASPFIDEDFNGEWQMFTPRPADAPRGIEFGKFQLGNMVVGDIIECGSDVTDYAVGDSVCGYGPLSETVIINAVNNYKLRKMPQGSSWKNAVCYDPAQFAMSGVRDANVRVGDFVVVVGLGAIGQIAIQLAKRAGASVVIGVDPIAHRCDIARRHGADFCLNPIGTDVGKEIKTLTGKQGADVIIETSGYADALQSALRGLAYGGTISYVAFAKPFAEGFNLGREAHFNNAKIVFSRACSEPNPDYPRWSRKRIEETCWELLMNGYLNCEDLIDPVVTFANSPESYMQYVDQHPEQSIKMGVTF", "values": [{"measurement": "Km", "result": "12.5 ± 1.5", "unit": "mM"}, {"measurement": "kcat", "result": "0.35 ± 0.03", "unit": "s⁻¹"}, {"measurement": "kcat/Km", "result": "28 ± 3", "unit": "M⁻¹ s⁻¹"}]}
